Source: US20200002434A1 (BIOSION, published 2020)

Legend:
[1] = target: recombinant human ErbB2 extracellular domain (ErbB2-ECD) (human) (UniProt P04626); test: competitive ELISA vs biotin-Trastuzumab on ErbB2-ECD; control
[2] = target: T1, human ErbB2 on ErbB2-positive cells (human, UniProt P04626 23-1255); test: cell-based or functional assay
[3] = target: T2, recombinant Macaca mulatta ErbB2-ECD (Macaca mulatta, UniProt I0FM22 23-652); test: indirect ELISA, coated ErbB2-ECD 1 ug/ml
T2 construct: extracellular domain
Protocol: (§1) Using indirect ELISA described in Example 1, the binding activity of antibodies of this invention to recombinant ErbB2-ECD derived from different species such as mouse, rat, Macaca mulatta, Macaca fascicularis and human, was examined. Briefly. Coat 96-well ELISA plates with 1 ug/ml recombinant ErbB2-ECD of different species with 100 ul/well and incubate at 4° C. for overnight. Remove the coating solution by discarding and tapping gently on a filter paper. Add 200 ul/well blocking buffer, incubate at 37° C. for 1-2 hours. Add purified antibody of this invention and incubate at 37° C. for one hour. Wash the plate 3 times with PBST, add goat anti-mouse IgG-HRP 100 ul/well, incubate at 37° C. for one hour. Wash the plate 3 times with PBST, add 100 ul/well TMB after 15 min, add 50 ul/well 1N HCl. Read the plate with Microplate Reader at 450 nm wavelength.

[4] = target: T3, recombinant rat ErbB2-ECD (rat, UniProt P06494 23-654); test: indirect ELISA, coated ErbB2-ECD 1 ug/ml
T3 construct: extracellular domain
T3 sequence (P06494 23-654): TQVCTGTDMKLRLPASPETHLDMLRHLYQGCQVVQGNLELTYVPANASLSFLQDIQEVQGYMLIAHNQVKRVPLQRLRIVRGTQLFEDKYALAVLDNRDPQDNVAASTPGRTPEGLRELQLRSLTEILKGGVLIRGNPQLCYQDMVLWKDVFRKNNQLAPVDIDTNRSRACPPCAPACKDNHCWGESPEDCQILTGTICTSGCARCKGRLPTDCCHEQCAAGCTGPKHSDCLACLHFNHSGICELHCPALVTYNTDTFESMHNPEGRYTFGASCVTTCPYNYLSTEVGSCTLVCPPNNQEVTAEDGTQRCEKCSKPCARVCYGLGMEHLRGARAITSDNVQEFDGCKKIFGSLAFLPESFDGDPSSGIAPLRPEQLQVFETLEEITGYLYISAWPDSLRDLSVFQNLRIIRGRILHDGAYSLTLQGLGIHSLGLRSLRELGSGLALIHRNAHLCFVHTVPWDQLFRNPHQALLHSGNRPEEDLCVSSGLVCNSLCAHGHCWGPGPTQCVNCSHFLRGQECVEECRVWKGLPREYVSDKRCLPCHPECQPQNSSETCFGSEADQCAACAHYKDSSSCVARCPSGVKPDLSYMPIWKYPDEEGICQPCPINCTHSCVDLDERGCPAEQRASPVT
Protocol: as §1

[5] = target: T4, recombinant mouse ErbB2-ECD (mouse, UniProt P70424 23-653); test: indirect ELISA, coated ErbB2-ECD 1 ug/ml
T4 construct: extracellular domain
T4 sequence (P70424 23-653): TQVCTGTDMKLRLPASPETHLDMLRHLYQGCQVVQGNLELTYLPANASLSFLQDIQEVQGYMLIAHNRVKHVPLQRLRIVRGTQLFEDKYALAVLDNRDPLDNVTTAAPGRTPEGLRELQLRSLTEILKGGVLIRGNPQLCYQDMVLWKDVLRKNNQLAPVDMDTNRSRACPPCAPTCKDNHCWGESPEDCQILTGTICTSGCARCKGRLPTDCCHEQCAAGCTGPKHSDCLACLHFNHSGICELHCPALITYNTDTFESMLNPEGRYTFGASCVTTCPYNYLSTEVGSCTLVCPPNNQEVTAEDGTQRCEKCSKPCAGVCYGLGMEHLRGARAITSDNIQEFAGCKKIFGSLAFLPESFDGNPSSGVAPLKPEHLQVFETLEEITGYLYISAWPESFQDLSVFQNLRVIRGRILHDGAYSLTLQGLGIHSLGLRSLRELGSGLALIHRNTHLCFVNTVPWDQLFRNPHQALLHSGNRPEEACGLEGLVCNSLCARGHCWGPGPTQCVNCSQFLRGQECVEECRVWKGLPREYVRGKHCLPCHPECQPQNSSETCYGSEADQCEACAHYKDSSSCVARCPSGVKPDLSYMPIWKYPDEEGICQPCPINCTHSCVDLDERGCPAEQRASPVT
Protocol: as §1

[6] = target: T5, recombinant human ErbB2 extracellular domain (ErbB2-ECD) (human, UniProt P04626 23-652); test: capture ELISA, coated antibody, biotin-human ErbB2-ECD titrated
T5 construct: extracellular domain; Coated on plates or used biotin-labeled in solution (capture ELISA); also called Human ErbB2-ECD; rhErbB2
Protocol: (§2) The corresponding purified IgG of five antibodies of this invention were also evaluated for their binding activity to recombinant human ErbB2 by capture ELISA. The procedure is briefly described as following: The 96-well plates were coated with 0.5 μg/ml anti-ErbB2 antibody overnight, blocked by 1% BSA in PBST at 37° C. for one hour. Add serial diluted sample of biotin-human ErbB2-ECD started with 2 μg/ml with 1:5 serial dilution. Wash the plate 3 times with PBST and add 100 ul of HRP-streptavidin (1:5000) to each well. Incubate for another 40 min at 37° C. Wash the plate 3 times with PBST and add 100 ul/well of TMB to develop at RT for 15 min followed by quenching with 50 ul 1N HCl. Read the plates at 450 nm for OD's value. Calculate the binding EC50 by using Prism software and the results are in Table 8 below

[7] = target: T1, human ErbB2 on ErbB2-positive cells; test: cell-based or functional assay; remark: listed apart in the source
[8] = target: T1, human ErbB2 on ErbB2-positive cells; test: cell-based or functional assay; remark: listed apart in the source
[9] = target: T2, recombinant Macaca mulatta ErbB2-ECD; test: indirect ELISA, coated ErbB2-ECD
Protocol: as §1
(§3) Following the same method described in Example 5, the binding activity of the chimeric antibodies of this invention was examined for binding recombinant ErbB2-ECD derived from different species such as mouse, rat Macaca mulatta, Macaca fasciculari and human.

[10] = target: T3, recombinant rat ErbB2-ECD; test: indirect ELISA, coated ErbB2-ECD
Protocol: as §1, §3

[11] = target: T4, recombinant mouse ErbB2-ECD; test: indirect ELISA, coated ErbB2-ECD
Protocol: as §1, §3

[12] = target: T5, recombinant human ErbB2 extracellular …; test: capture ELISA, recombinant ErbB2-ECD
Protocol: as §2
The variable domains of the heavy and light chain of the anti-ErbB2 monoclonal antibodies (Table 12, above) were cloned in-frame to human IgG1 heavy-chain and kappa light-chain constant regions, respectively.

[13] = target: T5, recombinant human ErbB2 extracellular …; test: capture ELISA, recombinant ErbB2-ECD; remark: listed apart in the source
[14] = target: T5, recombinant human ErbB2 extracellular …; test: capture ELISA, recombinant ErbB2-ECD; remark: listed apart in the source

Row | Molecule | binding result [3] | binding result [4] | binding result [5] | EC50 [6] [pM] | Internalization rate in SKBR3 cells, FITC signal, 2-hour [7] | binding result [9] | binding result [10] | binding result [11] | EC50 [12] [pM] | further results
1 | normal human IgG (antibody) | – | – | – | – | – | – | – | – | – | OD450 [1]: 2.91 OD
2 | normal mouse IgG (antibody) | – | – | – | – | – | – | – | – | – | OD450 [1]: 2.8 OD
3 | 4C9 mouse anti-ErbB2 monoclonal antibody (antibody, mouse IgG1, V domains shown, also called 4C9G3F5; IgG 4C9) VH: QVQLQQSGAELARPGASVKMSCKASGYTFTSYTMHWVKQRPGQGLDWIGYINPSSGYTTYNQKFKDKATLTADKSSSTAYMQLSSLASADSAVYYCARASAYSLDYWGQGTTLTVSS VL: DIQMTQSPSSLSASLGGRVTITCKASHDIDRYIAWYQHKPGKGPRLLIHYTSTLQPGIPSRFSGSGSGRDYSFSISNLEPEDIATYYCLKYDNLLWTFGGGTKLEIT | binds | no binding | no binding | 142 | 23.8 | – | – | – | – | BT474 cell proliferation inhibition IC50 (hIgG + 4C9) [2]: 471 pM
4 | 4H2 chimera (antibody, V domains shown, also called 4H2 chimeric antibody) VH: QVQLQQSGAELARPGASVKMSCKASGFTFTSYTIHWVKQRPGQGLDWIGYINPSSGYTTYNQRFKDKATLTADKSSSTAYMQLSSLTSADSAVYYCARASAYSLDYWGQGTTLTVSS VL: DIQMTQSPSSLSASLGGKVTITCKASQDIDRYIAWYQHKPGKGPRLLIHYTSTLQPGIPSRFSGSGSGRNYSFSISNLEPEDIATYYCLKYDNLLWTFGGGTKLEIK | – | – | – | – | – | binds | no binding | no binding | 118 | BT474 cell proliferation inhibition IC50 (hIgG + 4H2c) [8]: 19300 pM
5 | 4H2 mouse anti-ErbB2 monoclonal antibody (antibody, mouse IgG1, V domains shown, also called 4H2H2H9; IgG 4H2) VH: QVQLQQSGAELARPGASVKMSCKASGFTFTSYTIHWVKQRPGQGLDWIGYINPSSGYTTYNQRFKDKATLTADKSSSTAYMQLSSLTSADSAVYYCARASAYSLDYWGQGTTLTVSS VL: DIQMTQSPSSLSASLGGKVTITCKASQDIDRYIAWYQHKPGKGPRLLIHYTSTLQPGIPSRFSGSGSGRNYSFSISNLEPEDIATYYCLKYDNLLWTFGGGTKLEIK | binds | no binding | no binding | 117 | 17.7 | – | – | – | – | BT474 cell proliferation inhibition IC50 (hIgG + 4H2) [2]: ~1160 pM
6 | 4G6 chimera (antibody, V domains shown, also called 4G6 chimeric antibody) VH: QVQLQQSGAELARPGASVKMSCKASGYTFTSYTMHWVKQRPGQGLEWIGYINPSSAYTNYNQKFKDKATLTADKSSSTANMQLNSLTSEDSAVYYCARASAYSLDYWGQGTALTVSS VL: DIQMTQSPSSLSASLGGKVTITCKASQDINKYIAWYQHKPGKGPRLLIHSTSTLYPGIPSRFSGSGSGRDYSFRITNLEPEDIATYYCLQYDNLLWTFGGGTKVGIR | – | – | – | – | – | binds | no binding | no binding | 20 | BT474 cell proliferation inhibition IC50 (hIgG + 4G6c) [8]: 36300 pM
7 | 4G6 mouse anti-ErbB2 monoclonal antibody (antibody, mouse IgG1, V domains shown, also called 4G6C9B8; IgG 4G6) VH: QVQLQQSGAELARPGASVKMSCKASGYTFTSYTMHWVKQRPGQGLEWIGYINPSSAYTNYNQKFKDKATLTADKSSSTANMQLNSLTSEDSAVYYCARASAYSLDYWGQGTALTVSS VL: DIQMTQSPSSLSASLGGKVTITCKASQDINKYIAWYQHKPGKGPRLLIHSTSTLYPGIPSRFSGSGSGRDYSFRITNLEPEDIATYYCLQYDNLLWTFGGGTKVGIR | binds | no binding | no binding | 21 | 18.5 | – | – | – | – | BT474 cell proliferation inhibition IC50 (hIgG + 4G6) [2]: ~1240 pM
8 | 5F12 mouse anti-ErbB2 monoclonal antibody (antibody, mouse IgG1, V domains shown, also called 5F12E5A8; IgG 5F12) VH: QVQLQQSGAELARPGASVKMSCKASGYTFTSYTMHWIKQRPGQGLEWIGYINPSSSYTNYNQNFKDKATLTADKSSSTANMQLNSLTSEDSAVYYCARASSYSLDYWGQGTALTVSS VL: DIQMTQSPSSLSTSLGGKVTITCKASQDINKYIAWYQHKPGKGPRLLIHSTSTLYPGIPSRFSGSGSGKDYSFRITNLEPEDIATYYCLQYDNLLWTFGGGTKLGIR | binds | no binding | no binding | 156 | 22.6 | – | – | – | – | BT474 cell proliferation inhibition IC50 (hIgG + 5F12) [2]: 700 pM

The next lines start with results.

Row | binding result [3] | binding result [4] | binding result [5] | EC50 [6] [pM] | Internalization rate in SKBR3 cells, FITC signal, 2-hour [7] | binding result [9] | binding result [10] | binding result [11] | EC50 [12] [pM] | Molecule | further results
9 | binds | no binding | no binding | 499 | – | – | – | – | – | 5G9 mouse anti-ErbB2 monoclonal antibody (antibody, mouse IgG1, V domains shown, also called 5G91B42A3; IgG 5G9) VH: QVQLQQSGAELARPGASVKMSCKTSGYTFSSYTIHWVKQRPGQGLDWIGYINPSSDYTAYNQKFRDKATLTADQSSNTAYMQLSSLASADSAVYYCARASAFSLDFWGQGTTLTVSS VL: DIQMTQSPSSLSASLGGKVTISCKASHDIDRYIAWYQHKPGKGPRLLIHYTSTLQPGIPSRFSGSGSGRDYSFSISNLEPEDVATYYCLNYDNLLWTFGGGTKLEIT | BT474 cell proliferation inhibition IC50 (hIgG + 5G9) [2]: ~1330 pM
10 | – | – | – | – | – | binds | no binding | no binding | 49 | 5G9 chimera (antibody, V domains shown, also called 5G9 chimeric; 5G9 chimeric antibody) VH: QVQLQQSGAELARPGASVKMSCKTSGYTFSSYTIHWVKQRPGQGLDWIGYINPSSDYTAYNQKFRDKATLTADQSSNTAYMQLSSLASADSAVYYCARASAFSLDFWGQGTTLTVSS VL: DIQMTQSPSSLSASLGGKVTISCKASHDIDRYIAWYQHKPGKGPRLLIHYTSTLQPGIPSRFSGSGSGRDYSFSISNLEPEDVATYYCLNYDNLLWTFGGGTKLEIT | BT474 cell proliferation inhibition IC50 (hIgG + 5G9c) [8]: 43400 pM; EC50 [13]: 44 pM
11 | – | – | – | – | – | binds | no binding | no binding | 114 | 4C9 chimera (antibody, V domains shown, also called 4C9 chimeric antibody) VH: QVQLQQSGAELARPGASVKMSCKASGYTFTSYTMHWVKQRPGQGLDWIGYINPSSGYTTYNQKFKDKATLTADKSSSTAYMQLSSLASADSAVYYCARASAYSLDYWGQGTTLTVSS VL: DIQMTQSPSSLSASLGGRVTITCKASHDIDRYIAWYQHKPGKGPRLLIHYTSTLQPGIPSRFSGSGSGRDYSFSISNLEPEDIATYYCLKYDNLLWTFGGGTKLEIT | –
12 | – | – | – | – | – | binds | no binding | no binding | 24 | 5F12 chimera (antibody, V domains shown, also called 5F12 chimeric; 5F12 chimeric antibody) VH: QVQLQQSGAELARPGASVKMSCKASGYTFTSYTMHWIKQRPGQGLEWIGYINPSSSYTNYNQNFKDKATLTADKSSSTANMQLNSLTSEDSAVYYCARASSYSLDYWGQGTALTVSS VL: DIQMTQSPSSLSTSLGGKVTITCKASQDINKYIAWYQHKPGKGPRLLIHSTSTLYPGIPSRFSGSGSGKDYSFRITNLEPEDIATYYCLQYDNLLWTFGGGTKLGIR | EC50 [14]: 43 pM
